Article PMC5383425, “Differential CLE peptide perception by plant receptors implicated from structural and functional analyses of TDIF-TDR interactions” (PLoS ONE, 2017)
Entries after “also recorded” stand apart in the source; their conditions may differ. Square brackets hold non-standard residues; d marks the D form. Ends that are not written are not given here. Peptide text beside a SMILES is read from it. Hyp = O=C(O)[C@@H]1C[C@@H](O)CN1

Legend:
[1] = biological target: T1, ecdTDR (extracellular domain of TDR, residues 30–642), wild type (Arabidopsis thaliana, UniProt Q9FII5); assay: ITC of synthetic TDIF/CLE peptides with wild-type ecdTDR; conditions: for Binding to TDR in words (relative to wild type peptide) / Kd (dissociation constant): ITC, 25°C, pH 5.5; for Binding to TDR in words (relative to wild type peptide): wild-type ecdTDR; for Kd (dissociation constant): 10 mM sodium citrate, 100 mM NaCl, 0.5–1 mM peptide titrated into 10–40 μM ecdTDR, one set of binding sites, Kd = 1/Ka
T1 sequence (Q9FII5 30-642): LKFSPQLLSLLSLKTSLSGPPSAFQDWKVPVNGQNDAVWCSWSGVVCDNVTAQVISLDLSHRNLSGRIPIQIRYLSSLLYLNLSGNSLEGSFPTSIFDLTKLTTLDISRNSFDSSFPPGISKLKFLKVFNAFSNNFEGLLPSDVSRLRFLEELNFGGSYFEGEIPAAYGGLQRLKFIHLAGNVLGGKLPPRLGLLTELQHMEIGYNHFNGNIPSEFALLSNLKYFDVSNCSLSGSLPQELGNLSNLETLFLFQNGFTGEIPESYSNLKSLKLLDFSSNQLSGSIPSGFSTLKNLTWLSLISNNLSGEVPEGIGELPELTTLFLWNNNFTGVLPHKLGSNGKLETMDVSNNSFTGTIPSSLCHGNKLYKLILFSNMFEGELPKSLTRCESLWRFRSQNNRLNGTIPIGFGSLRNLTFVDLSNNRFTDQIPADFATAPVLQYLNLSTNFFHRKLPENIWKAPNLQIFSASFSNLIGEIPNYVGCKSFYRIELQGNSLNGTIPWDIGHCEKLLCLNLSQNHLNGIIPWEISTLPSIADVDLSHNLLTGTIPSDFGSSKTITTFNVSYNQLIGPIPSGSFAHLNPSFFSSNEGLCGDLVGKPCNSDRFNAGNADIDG
From the text: To elucidate the molecular basis of TDR-TDIF interaction, we expressed the extracellular domain of TDR (residues 30–642) from Arabidopsis thaliana using Bac-to-Bac baculovirus-mediated insect cell expression system (Invitrogen). DNA fragment encoding the A. thaliana TDR gene (residues 30–642) were amplified by polymerase chain reaction (PCR) from an A. thaliana Expressed Sequence Tag (EST) clone as template. The amplified DNA fragment was then cloned into a modified pFastBac1 vector with the secretion signal sequence of baculovirus gp67 glycoprotein fused to its 5’ end and an engineered 6-histidine tag at the carboxyl terminus of the TDR protein. The construct plasmid was used to transform DH10Bac (Invitrogen) competent cells to generated recombinant bacmid DNA. Then the bacmid DNA was used to transfect sf9 insect cells to generate recombinant virus which was then amplified three times to passage 3. We used 20 ml passage 3 virus to infect each liter of High Five cells with a cell density of 1.5 x 10^6 in SF900 II SFM medium (Invitrogen). The recombinant protein was expressed in High Five cells at 27°C. […] The TDR mutants were generated using a PCR-based site-directed mutagenesis kit (Invitrogen), and the mutant TDR proteins were expressed and purified as the same procedure of the wild-type TDR (30–642) protein.
ITC experiments were performed on a MicroCal Auto-iTC200 instrument. […] Experiments were carried out at 25°C in a buffer containing 10 mM sodium citrate and 100 mM NaCl at pH 5.5. The data was analyzed using ORIGIN software. The association constant (Ka), enthalpy change (ΔH), and the stoichiometry (N) were calculated by fitting the thermograms to one set of binding sites. The association constant (Ka) was calculated by fitting the thermograms to one binding site.

[2] = biological target: ecdTDR S305A/W353A/R421A/R423A (Arabidopsis thaliana, UniProt Q9FII5, R421A/R423A/S305A/W353A); conditions: ITC, wild type TDIF, 25°C, pH 5.5
From the text: (§1) To elucidate the molecular basis of TDR-TDIF interaction, we expressed the extracellular domain of TDR (residues 30–642) from Arabidopsis thaliana using Bac-to-Bac baculovirus-mediated insect cell expression system (Invitrogen). DNA fragment encoding the A. thaliana TDR gene (residues 30–642) were amplified by polymerase chain reaction (PCR) from an A. thaliana Expressed Sequence Tag (EST) clone as template. The amplified DNA fragment was then cloned into a modified pFastBac1 vector with the secretion signal sequence of baculovirus gp67 glycoprotein fused to its 5’ end and an engineered 6-histidine tag at the carboxyl terminus of the TDR protein. The construct plasmid was used to transform DH10Bac (Invitrogen) competent cells to generated recombinant bacmid DNA. Then the bacmid DNA was used to transfect sf9 insect cells to generate recombinant virus which was then amplified three times to passage 3. […]
(§2) ITC experiments were performed on a MicroCal Auto-iTC200 instrument. […] The data was analyzed using ORIGIN software. The association constant (Ka), enthalpy change (ΔH), and the stoichiometry (N) were calculated by fitting the thermograms to one set of binding sites. The association constant (Ka) was calculated by fitting the thermograms to one binding site.

[3] = biological target: ecdTDR Y234A/F279A/F281A/S305A/W353A/ R421A/R423A (Arabidopsis thaliana, UniProt Q9FII5, F279A/F281A/R421A/R423A/S305A/W353A/Y234A); conditions: ITC, wild type TDIF, 25°C, pH 5.5
From the text: as §1, §2

[4] = system: tracheary element differentiation; conditions: reported in vivo study; cited from earlier work
From the text: There are two major anchoring sites on the TDIF peptide that are separated by Hyp4-S5-G6-Hyp7 (Fig 2). […] The side chain of H1 dips into a binding pocket of TDR formed by residues S162, G186, S187, Y188 and G210. In addition, hydrogen bonding interactions create major interactiv ... || Three TDIF residues N8, I10 and N12 form a C-terminal anchoring site (Fig 2C). Alanine substitutions of these residues N8A, I10A and N12A radically weaken their binding with TDR receptor. δ-NH2 group of N8 forms hydrogen bonds with the hydroxyl group of S305; side chain of I10 forms hydrophobic interaction with W353; δ-NH2 group of N12 forms hydrogen bonds with the hydroxyl group of S377 and carbonyl group of N12 forms a hydrogen bond with the side chain of R421.

[5] = biological target: T2, extracellular domain of A. thaliana TDR (residues 30-642), Q9FII5; assay: ITC
T2 chain: T1 sequence (Q9FII5 30-642)

[6] = biological target: T3, extracellular domain of A. thaliana TDR (residues 30-642) (Arabidopsis thaliana, UniProt Q9FII5 30-642, N-glycosylated at N111, N356, N378, N471 and N525 (one GlcNAc visible on each in the structures)); assay: ITC
T3 chain: T1 sequence (Q9FII5 30-642)

[7] = biological target: T4, extracellular domain of A. thaliana TDR (residues 30-642) (Arabidopsis thaliana, UniProt Q9FII5 30-642, N-glycosylated at N111, N356, N378, N471 and N525 (one GlcNAc visible on each in the structures)); assay: ITC; 0.5–1 mM peptide titrated into 10–40 μM ecdTDR; 25°C; 10 mM sodium citrate, 100 mM NaCl, pH 5.5; fitted to one set of binding sites; MicroCal Auto-iTC200; conditions: both partners purified
T4 construct: TDR/PXY (TDIF RECEPTOR / PHLOEM INTERCALATED WITH XYLEM) of A. thaliana, extracellular domain, residues 30-642; the structure models hold residues 40-625; also called ecdTDR; TDR-ECD; source: High Five insect cells (baculovirus), secreted, purified (Ni-NTA, size-exclusion chromatography)
T4 sequence (looked up): T1 sequence (Q9FII5 30-642)

Chain of ecdTDR Y234A/F279A/F281A/S305A/W353A/ R421A/R423A (Q9FII5 30-642 Y234A/F279A/F281A/S305A/W353A/R421A/R423A): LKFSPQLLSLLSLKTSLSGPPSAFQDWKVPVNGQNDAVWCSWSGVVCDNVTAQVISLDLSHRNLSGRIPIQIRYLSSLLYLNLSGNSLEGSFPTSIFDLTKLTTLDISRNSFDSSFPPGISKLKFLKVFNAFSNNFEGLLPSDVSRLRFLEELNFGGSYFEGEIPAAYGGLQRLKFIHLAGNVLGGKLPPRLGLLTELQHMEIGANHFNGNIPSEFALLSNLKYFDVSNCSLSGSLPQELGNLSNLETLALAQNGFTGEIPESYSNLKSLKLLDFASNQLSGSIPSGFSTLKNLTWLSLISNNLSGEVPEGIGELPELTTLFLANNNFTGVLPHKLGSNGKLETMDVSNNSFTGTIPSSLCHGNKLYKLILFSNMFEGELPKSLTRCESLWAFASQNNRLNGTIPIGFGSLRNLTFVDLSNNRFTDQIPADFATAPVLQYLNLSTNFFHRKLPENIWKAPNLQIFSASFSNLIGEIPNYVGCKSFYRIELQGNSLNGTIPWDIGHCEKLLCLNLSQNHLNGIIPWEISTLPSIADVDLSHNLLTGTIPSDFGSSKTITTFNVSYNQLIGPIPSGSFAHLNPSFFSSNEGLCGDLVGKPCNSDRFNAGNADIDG
Chain of ecdTDR S305A/W353A/R421A/R423A (Q9FII5 30-642 S305A/W353A/R421A/R423A): as the sequence (Q9FII5 30-642 Y234A/F279A/F281A/S305A/W353A/R421A/R423A) above, with A205Y, A250F, A252F counted along it

## TDIF-S11A: TDIF mutant peptide, S11A substitution (HEVPSGPNPIAN; not fully specified (residues 4, 7))
[1]
  Binding to TDR in words (relative to wild type peptide): barely affects the binding affinity

## CC[C@H](C)[C@H](NC(=O)[C@@H]1CCCN1C(=O)[C@H](CC(N)=O)NC(=O)[C@@H]1C[C@@H](O)CN1C(=O)CNC(=O)[C@H](CO)NC(=O)[C@@H]1C[C@@H](O)CN1C(=O)[C@@H](NC(=O)[C@H](CCC(=O)O)NC(=O)[C@@H](N)Cc1c[nH]cn1)C(C)C)C(=O)N[C@@H](CO)C(=O)N[C@@H](CC(N)=O)C(=O)O [TDIF, Tracheary Element Differentiation Inhibitory Factor] (H-HEV[Hyp]SG[Hyp]NPISN-OH)
[2]
  Kd: no measurable binding
[3]
  Kd: no measurable binding

## CLE42: CLE peptide in which the E2 of TDIF has been replaced with glycine (HGVPSGPNPISN) [reference compound]
[1]
  Binding to TDR in words (relative to wild type peptide): does not influence the binding significantly

## TDIF-H1A/E2A/V3A/N12A: TDIF mutant peptide (AAAPSGPNPISA; not fully specified (residues 4, 7))
[1]
  Kd (dissociation constant): No binding
  Binding to TDR in words (relative to wild type peptide): no binding

## CC(C)[C@H](NC(=O)[C@H](CCC(=O)O)NC(=O)[C@@H](N)Cc1c[nH]cn1)C(=O)N1C[C@H](O)C[C@H]1C(=O)N[C@@H](CO)C(=O)NCC(=O)N1C[C@H](O)C[C@H]1C(=O)N[C@@H](C)C(=O)N1CCC[C@H]1C(=O)N[C@@H](C)C(=O)N[C@@H](CO)C(=O)N[C@@H](C)C(=O)O [TDIF-N8A/I10A/N12A] (H-HEV[Hyp]SG[Hyp]APASA-OH)
[1]
  Kd: 11.1 ± 1.84 µM

## TDIF-P9A: TDIF mutant peptide, P9A (HEV[Hyp]SG[Hyp]NAISN)
[4]
  Effect on inhibition of tracheary element differentiation, in words: significant in effect

## CC[C@H](C)[C@H](NC(=O)[C@@H]1CCCN1C(=O)[C@H](CC(N)=O)NC(=O)[C@@H]1C[C@@H](O)CN1C(=O)CNC(=O)[C@H](CO)NC(=O)[C@@H]1C[C@@H](O)CN1C(=O)[C@@H](NC(=O)[C@H](CCC(=O)O)NC(=O)[C@@H](N)Cc1c[nH]cn1)C(C)C)C(=O)N[C@@H](CO)C(=O)N[C@@H](C)C(=O)O [TDIF-N12A] (H-HEV[Hyp]SG[Hyp]NPISA-OH)
[1]
  Kd: 4.69 ± 0.47 µM

## CLE46: CLE peptide with E2K, V3H, I10T and S11G substitutions relative to TDIF (HKHPSGPNPTGN) [reference compound]
[1]
  Kd (dissociation constant): No binding
  Binding to TDR in words (relative to wild type peptide): no measurable binding; also recorded: unable to bind TDR

## TDIF-H1A/E2A/V3A/N8A/I10A/N12A: TDIF mutant peptide, both anchoring sites mutated (AAAPSGPAPASA; not fully specified (residues 4, 7))
[1]
  Kd (dissociation constant): No binding
  Binding to TDR in words (relative to wild type peptide): no binding

## HLVPSGPNPLHN [CLE9 peptide R1H]
[5]; chain shown with the change
  ratio to parent: -46.6
[5]; chain shown with the change, parent: […]
  other: fold change in Kd against wild type TDIF: 2.1
[5]; chain shown with the change;, parent: 10215 ± 6281 nM
  Kd: 219 nM

## RLVPSGPNPLHN [CLE9 peptide]
[6]
  Kd: 10.2 µM

B1: CLE42 peptide (peptide)
peptide: HGVPSGPNPISN
notes: CLE42 peptide of A. thaliana; numbers count on: the 12-residue peptide
[7]
  binding result: binds

B2: TDIF H1A mutant peptide (peptide)
peptide: AEV[Hyp]SG[Hyp]NPISN
notes: TDIF (CLE41/CLE44 peptide) of A. thaliana; numbers count on: the 12-residue peptide
[7]
  fold lower affinity than wild-type TDIF: ~115 fold

B3: TDIF V3A mutant peptide (peptide)
peptide: HEA[Hyp]SG[Hyp]NPISN
notes: as for B2
[7]
  fold lower affinity than wild-type TDIF: 11.1 fold

B4: TDIF S11A mutant peptide (peptide)
peptide: HEV[Hyp]SG[Hyp]NPIAN
notes: as for B2
[7]
  binding result: binds

B5: TDIF peptide with alanine substitution of Hyp4 (peptide)
peptide: HEVASG[Hyp]NPISN
notes: TDIF (CLE41/CLE44 peptide) of A. thaliana; numbers count on: the 12-residue peptide; also called Hyp4 alanine mutant
[7]
  binding result: binds

B6: TDIF E2R mutant peptide (peptide)
peptide: HRV[Hyp]SG[Hyp]NPISN
notes: as for B2
[7]
  fold increase in Kd over wild-type TDIF: 5.3 fold

B7: TDIF-P9A mutant peptide (peptide)
peptide: HEV[Hyp]SG[Hyp]NAISN
notes: as for B2
[7]
  fold decrease in binding against wild-type TDIF: 2 fold

B8: TDIF peptide with alanine substitution of S5 (peptide)
peptide: HEV[Hyp]AG[Hyp]NPISN
notes: TDIF (CLE41/CLE44 peptide) of A. thaliana; numbers count on: the 12-residue peptide; also called S5 alanine mutant
[7]
  binding result: binds

B9: TDIF-H1R peptide (peptide)
peptide: REV[Hyp]SG[Hyp]NPISN
notes: TDIF (CLE41/CLE44 peptide) of A. thaliana; numbers count on: the 12-residue peptide; also called printed once as 'R1H substitution of TDIF'; source: synthetic peptide
[7]
  fold lower affinity than wild-type TDIF: 3.2 fold

B10: TDIF E2A mutant peptide (peptide)
peptide: HAV[Hyp]SG[Hyp]NPISN
notes: as for B2
[7]
  fold increase in Kd over wild-type TDIF: 3.2 fold

B11: G6T TDIF mutant peptide (peptide)
peptide: HEV[Hyp]ST[Hyp]NPISN
notes: as for B2
[7]
  fold lower affinity than wild-type TDIF: 20.1 fold

B12: G6A TDIF mutant peptide (peptide)
peptide: HEV[Hyp]SA[Hyp]NPISN
notes: as for B2
[7]
  fold lower affinity than wild-type TDIF: 13.9 fold

B13: TDIF peptide with alanine substitution of Hyp7 (peptide)
peptide: HEV[Hyp]SGANPISN
notes: TDIF (CLE41/CLE44 peptide) of A. thaliana; numbers count on: the 12-residue peptide; also called Hyp7 alanine mutant
[7]
  binding result: binds

B14: TDIF-N8A/I10A/N12A peptide (peptide)
peptide: HEV[Hyp]SG[Hyp]APASA
notes: as for B2
[7]
  Kd: ~11 µM
  fold lower affinity than wild-type TDIF: ~110 fold
